The domain aggregation screens of Martell et al. (2025)

Test: soluble fraction after stress (log2 fold change); higher = more stays soluble; pooled small domains, quantitative proteomics
Conditions: stress: 50 degC
Procedure, shortened: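 Pooled custom libraries of small protein domains were measured in a high-throughput format, with quantitative proteomics as the read-out. Each library was stressed at 50°C. Aggregation propensity is given as the base-two logarithm of the fold change in how much of each protein stays soluble after the stress. Higher values mean a larger share of the protein remains in solution.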

Sequence	soluble fraction (log2)
HMRLTTTPKTARGLTTMNRIIRAAEVEFGRKGYHYTGITDIAQRAKVASGTIYLYFTDKYSLYVHLLT	0.246
HMQKLSPKQRRGNIIELIKENPTITAKNISTIFNLNQRTIERDLAKLTEEGYIKYEGSSKDGKWVFL	0.087
HMEGFSAGQFVRASVDNTAFYLKRPKGDAVADKLLRRGASMKVISASGDYLKVELDSGEVGFVPPVMVE	0.05
HMYEGLPVTLIIDGRVIEANLAKANRDMAWLERELANSGVRSHHDVFFATLDSRGQLYYQVKN	-0.143
HMVSPFQQQIADKVHNEIIAAKFNYDNATNENERLLAQLQAKKARELANQYGLDMSSYGADTTAERS	0.235
HMRRATLERLANNTAEKAIRYKRSLALEPMNPQERRIIHAALQEVEGVSTHSVGTEPNRKVIVVPDGV	-0.0677
HMKTATAKIKATPFGWLRVRETPSLNGAEIARVNSGESYKILERGEGWIKIKVSDTVEGWVSEAYVELS	-0.102
HMISKWGELVDLAVQLDIIQKSGSWFSMGDERIGQGANSVKDYLIANPDIAEKVEAEVRENLWKLN	-0.129
HMSDPVDDLLLRISQQAGVARGQLVAELNMLVQDRFGGNLRHEAAAVLMAKRYGIEFRDLLPALREHLVKN	-0.00206
HMKHSEAIELGKRMLSQALQDVSLVLKKIPEERLQAVAAELNLKTPDELFEKIGLGERLAALVARRLLP	-0.207
HMKTTKLEELDMQKEFILKNGKYGFGVYIGGKYIGLTDIGTVNSFKDSLQLPVVSLSDIDFKTFAEKF	-0.757
HMEVTENQEKHAYQEAMDQALRFLAPRFLSRAELTRKLLQKEHDRDVIDAVIDRLEELDYVDDAR	0.0309
HMYIDNVTIYDVGFNERIVHALERAGVKNLYDLSQMNFYQLQRIRNLGASSLEKVINRIHSYGILLKNES	-1.2
HMELNFEGFYRFVRDELNVDLNAYKEKQLKRRIATVMKSSGALTLEDYSRLIANDEVIRNKFLDYITI	-1.08
HMREGIQLGDPVRVIRDPLFGKIGAVSGLPSELRAIPTESEVRVLEVRFPDGTTTVVPRANIEVIEG	0.364
HMPASTSIPYSDFISRVESGDVQEAKIGESAITGTYKDGSQFKTVKPPTLDTNLMPTLIQNKVNVVGVEP	0.18
HMRSPLYVQIKQHILGDIRKGVWKPGEKLPTELDLAERFGVSVGTVRRAMGGLEDEGIISRREGSGTFVRT	0.0686
HMKWIEILKSKDGNYALLQDEKDTQFVVASGYNPDAAEDQKWGHGSYFIYWNNKENKAEMLMNAIDLFRYR	-2.11
HMTDGYAMRLERLNSLEEYVLNKGTVSLEDLAERFGVSINTIRRDLNELISRGQIKKVYGGVSSLHD	0.0904
HMSSLTDNFVKALSYYLALSGKSKKEVADGIGIPPTTFSSWSNGKHLPDMDRLQNLATYLGAPVSEFFDFT	-0.0831

Sequence	soluble fraction (log2)
HMQKIEKVDYGTFLKMIENGEIDQVNLTEKKISFTTDKDAETVYETGRVEDPNIVDRLYQADVEFTQEI	0.207
HMEEPFRIEKKGDIYYISGKTVERLVAMTDLDNDSAVKRLQRTLKRMGVEDALREHGINPGDTVVIGNYEF	-0.0245
HMPPDLSEAIQKRIEGKTDEALEILRKLYNEYPESTEIITMLGRTLLDAEEYALAAFRLEQALDLGG	-0.569
HMANSANARKSLVSKLIAGGKIASQSDLVKALKKQGIVVTQGTASRDLEDIGAIRVRNSEGEIVYALT	0.081
HMTKQRSIILDLLKANQDRHLTAEEMLELLNQNHTPVSKATLYRYLDMLVSQNAVRKFIIDDQPSAGYQYL	-1.34
HMEIEYFDDEELDAYKGRKSDSYTDEEAAQFAEVLYTMRPSEVKDWTASLTLRGISMPDQIKDEAIMLME	-0.0466
HMEINEDEIYEKIMIEIEQDNKVKSTWAKALSQSDGNKDKAESLYISMRFEELKYHQSYQKEELNLKDNQQ	0.0911
HMEEDPVIAAQRFLNIFRQLHIFTAAKRKEFDELLLKQPASVKGMFASLPGGSVLQEYVNNLEQNAG	-0.137
HMSSIYVYPNPTANRIYIQADNIKKAELFDLMGRKVRSTNQPQIDISRLSRGNYILQVKTQNNTQSFKIIK	-0.476
HMPMPQDEVSYALGLSIGQNFKASGIKAITSEDFIAGLQDALAEREPQMTTERAREVINQLFMRLQQEESE	0.145
HMSLSKQETEFLTTFSASGKRVFTYQQATDYWQSKVAATNVLGRLVRKGWLQRLERGLYMIIPLEAGPERF	-0.853
HMTQNSAITNRVLYMQRTLRQYGYAVPESGNFDRTTRAHAAEFLYNATGLPVRENQSVQEFYRAFQRVQG	-0.981
HMEITRDTVIQWLEAERRSQTWLSKQLGVSVQAVSNWLREKNPQTISASAQITIRALMEEDAAK	-0.42
HMDELPKDILRSFGLPDKPWAMELLRNLRRDGFALDGETARAYAEMAAMKPPRTDARQWMTAADVAYRRG	-0.151
HMPTNVYSIIGKEGIVLESIDNLNSTGKVKVNGELWSAISDSNIEKGETIKVLSVNGVKLKVEKVN	0.0885
HMNDTSLIIDNLMLKLGNNIKNFSEIYSLLRKNLAEYGEEFIKSKVDYVLKNFNDNIEENLKKLLTE	-0.218
HMESEAKLGVAFNGKTRFDMTFPADADNKTIEEAVLADERAQKYLEGFQVAKVIIVPKRMVNIVLK	0.24
HMKYNETEFKNLVAKLYNGEIEIVGKFTGLSYPILVKDKYGIMLSQKANLILNYRPTINIALNKTEYAMN	-0.0487
HMLTTMSSQWKPSLDAIEILEKSGIAYSFIEDAIPEFVLYWRERGISHGAWNTKFVEHIRKQWAKFEAS	-1.35
HMKSEIRKKNSQIILDAAEHEFSVHGYRGTSVQMIADRSGLPKANLHYYYKSKSALYGAVLDRIL	0.202

Sequence	soluble fraction (log2)
HMQTLQNNLKQIRSRVGLTQGELASRAGISRQAYSTLESGNANPSTEVSLRLAEALNERIESLFFLANQ	-0.275
HMQMKDRILRIMEHEGISPSKFAEEIGIQRSAMSHIISGRNNPSLDVLTKIMQRFTYVDTDWLLFGKGSMV	-0.737
HMLPIMDRLITAGISINTAKKWVDKFGDKRIKQNLAYSLAKQKEGKVKTNFVGYLAKAIEEDWGSGWE	-0.557
HMPQNLQDQLFELILSRYPRRADAVEDLANILHLGKDPVYRRLRGDTFLSPLEISTLALHFRISLDALIV	-2.55
HMKQEFEMGLPNGVGEQMLAHAIEKFDVKLEHSEFGPKLIGTYEELEKAKVFLYEAIEARLNQLE	-0.0154
HMAPNKLQQQEVWTKALPLLQQMIMTIRQIDAAGGDSSPERELLEETAARFDETLDVERFLP	-0.308
HMAPRDKADKYVAAGIAEELVPILQKVGYYLVTDLKDVKAQKIQQQIGEIIKKYKLDIEKPSVQDIEGWN	0.0612
HMEQRREEFILLAKELLEKELRKQNLEVHENLKPDVLNDVAKRLGMVSMDDLLAAVGDGKITPGTVVSKIV	0.064
HMKLGYTVHGNVVTVKAVANGISLYNTIGQKVAESTDGQTVKAPAHGVYILSVQGKSGSRETAKIVI	-0.39
HMNMLGSNIKYLRNRHKLSQQELSEKLGVPRSSLSDYERGHTQVGLDSLIKLADIFDVKIDDLLRSNLSHR	-0.0552
HMTSVAYVIDRINKIQNVYSELEALGLKDEFEKILSNIEDLSKKDIREIKTLLKTKGVIKNLDDLNVKL	-0.0059
HMYTPDYLSDLMVRMAHHSTAIEGNTLTQGETKSVLVDGYIPRAMDMRELNEVLNYKAFMTFLVE	-0.0969
HMINKDNLIEEILKFINTKIADISSNNPLFDIVAKPYISKVVTNNVSKLDKALSLIADDKGMVDADGLLT	-0.292
HMTAMQYVTIKDIADALGISKSSVSRALAGDVHNVSAQTIERVRAKALEMGYLRNNAAVNLR	-0.0718
HMKNEQIFIVRPDAEGTRLDQWLAAQMASSEEAPSRMQIQRWIKAGLVEGQGTLNPARRIEAGESYTVKPG	0.0493
HMGDTIGEQKAKEIALEHAGLKSSDVTFIRAVLEYDDRNWEYDVEFYDADTYTEYDYEIDAHTGKILSFDH	0.0993
HMAGRKMMVMANNLSVRKSANSLSEKLADLSRGDTVEYISSTNGWNKVRYKGQIGYVSSYYLKDTGEEVE	-0.0409
HMDLQHQLTPRLKRLRLSGILETLEVRNQQAIAEKWSYVEFLTRLAEDEVERRDHKQLTLRLR	-0.499
HMSADEVSQQLTSEQTKSKSYQALLQAYAAYQQKSFDDAALELQNVQQDVLSDSQKTIYNTISQAVNS	0.185
HMTFPIDINRADTEQLTALPGIGEVLAKRIIAYREENGSFLSTDELKNVEGIGEKRLEAIVDLITIG	0.113
